This is an account of results in PMC4204210 (Molecular cell, 2014).

For orientation: stoichiometry N means the number of molecules, sites or subunits per partner or assembly.

The data set deals with the molecule itself. Nature of the data set: SEC-MALS.

B1: Get3 purified under reducing conditions (Get3red) (natural protein, yeast)
chain: MDLTVEPNLHSLITSTTHKWIFVGGKGGVGKTTSSCSIAIQMALSQPNKQFLLISTDPAHNLSDAFGEKFGKDARKVTGMNNLSCMEIDPSAALKDMNDMAVSRANNNGSDGQGDDLGSLLQGGALADLTGSIPGIDEALSFMEVMKHIKRQEQGEGETFDTVIFDTAPTGHTLRFLQLPNTLSKLLEKFGEITNKLGPMLNSFMGAGNVDISGKLNELKANVETIRQQFTDPDLTTFVCVCISEFLSLYETERLIQELISYDMDVNSIIVNQLLFAENDQEHNCKRCQARWKMQKKYLDQIDELYEDFHVVKMPLCAGEIRGLNNLTKFSQFLNKEYNPITDGKVIYELEDKE
In the case of B1, the “stoichiometry N” value came to 2.

B2: Get3 oxidised with 2 mM H2O2 / 50 µM Cu2+ (Get3ox) (natural protein, yeast)
chain: MDLTVEPNLHSLITSTTHKWIFVGGKGGVGKTTSSCSIAIQMALSQPNKQFLLISTDPAHNLSDAFGEKFGKDARKVTGMNNLSCMEIDPSAALKDMNDMAVSRANNNGSDGQGDDLGSLLQGGALADLTGSIPGIDEALSFMEVMKHIKRQEQGEGETFDTVIFDTAPTGHTLRFLQLPNTLSKLLEKFGEITNKLGPMLNSFMGAGNVDISGKLNELKANVETIRQQFTDPDLTTFVCVCISEFLSLYETERLIQELISYDMDVNSIIVNQLLFAENDQEHNCKRCQARWKMQKKYLDQIDELYEDFHVVKMPLCAGEIRGLNNLTKFSQFLNKEYNPITDGKVIYELEDKE
modifications: intramolecular disulfide bonds connecting the next-neighbor conserved cysteines (C242/C244 and C285/C288)
With B2, the “stoichiometry N” value worked out at 4.
